According to US20220089757A1 (ADAGENE PTE, published 2022):

Experiments:
human CD137L peptide 01 = biological target: T1, human CD137L peptide 01 (human, biotinylated (position not given)); experiment: ELISA, IgG on CD137L peptide 01
T1 construct: Synthesized as biotinylated peptide
T1 peptide: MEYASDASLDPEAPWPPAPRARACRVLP

human CD137L peptide 02 = biological target: T2, human CD137L peptide 02 (human, biotinylated (position not given)); experiment: ELISA, IgG on CD137L peptide 02
T2 construct: Synthesized as biotinylated peptide; identical to peptide 01 except that it lacks the C-terminal 5 residues
T2 peptide: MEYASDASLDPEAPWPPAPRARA

full length human CD137L = biological target: T3, full length human CD137L (human, UniProt P41273 1-254); experiment: immunofluorescence microscopy on fixed and permeabilized CHO-S-CD137L cells
T3 construct: also called CD137 ligand; human CD137 ligand
Protocol: FIGS. 3A-3C show immunofluorescence staining of TY23557, TY23561, the Reference-1 and isotype control antibodies at the indicated concentrations. The positive control CHO-S-CD137L cell line and the negative control CHO-S cells were washed, fixed and permabilized in a similar fashion as in immunohistochemistry (IHC), followed by analysis through fluorescence microscopy. (FIG. 3A) CHO-S-CD137L cells were stained with TY23557 or TY23561 (0.4 nM or 40 nM). (FIG. 3B) CHO-S-CD137L cells were stained with Reference-1 (6.66 nM) or negative isotype control (40 nM). (FIG. 3C) CHO-S cells were stained with TY23557 (40 nM), TY23561 (40 nM), negative isotype control (40 nM) or Reference-1 (6.66 nM).
The specificity of the antibodies were further confirmed with immunofluorescence analysis. To that end, CHO-S and CHO-S-CD137L cells were cultured on cover slides overnight. Cells were washed with DPBS followed by fixing and permeabilizing with 2% (v/v) paraformaldehyde and 0.1% Triton X 100. Then the cells were incubated with TY23557, TY23561, negative isotype control and Reference-1 (positive control) for one hour at room temperature. After washing by 0.05% PBST, PE Goat anti-mouse IgG Fc were added and staining for one hour at room temperature. The samples were analyzed with fluorescent microscopy.

Row | Binder | EC50 (human CD137L peptide 01) | EC50 (human CD137L peptide 02) | binding result (full length human CD137L)
1 | TY23556 (antibody, V domains shown, Tested as IgG with Fc from mouse IgG2a, expressed in mammalian cells) VH: EVQLVESGGGLVQPGGSLRLSCAASGYSITSGHYWGWIRQAPGKGLEWIGEIYHSGSTYYSPSLKSRVTISRDNSKNTLYLQLNSLRAEDTAVYYCTRGRYGLDYWGQGTLVTVSS VL: DIQLTQSPSSLSASVGDRVTITCSASSSVGYVQWYQQKPGKAPKLLIYDASNRATGIPSRFSGSGSGTDFTLTISSLQPEDFATYYCQQYGSAPITFGQGTKVEIKR | 0.66 nM | 0.48 nM | 
2 | TY23558 (antibody, V domains shown, Tested as IgG with Fc from mouse IgG2a, expressed in mammalian cells; also called TV23558) VH: EVQLVESGGGLVQPGGSLRLSCAASGYSISSGHYWSWIRQAPGKGLEWIGEIYHSGSTYYSPSLKSRVTISRDNSKNTLYLQLNSLRAEDTAVYYCAREGSDSYGGPDPFDIWGQGTLVTVSS VL: DIQLTQSPSSLSASVGDRVTITCRARSTVSFPYLHWYQQKPGKAPKLLIYDASNLETGVPSRFSGSGSGTDFTLTISSLQPEDFATYYCQQSLEDPFTFGQGTKVEIKR | 3.84 nM | 1.51 nM | 
3 | TY23555 (antibody, V domains shown, Tested as IgG with Fc from mouse IgG2a, expressed in mammalian cells) VH: EVQLVESGGGLVQPGGSLRLSCAASGYSISSGHYWAWIRQAPGKGLEWVSVISGSGGSTYYADSVKGRFTISRDNSKNTLYLQLNSLRAEDTAVYYCARYRSGAFDYWGQGTLVTVSS VL: DIQLTQSPSSLSASVGDRVTITCRASQSISRWLAWYQQKPGKAPKLLIYAASSLQSGVPSRFSGSGSGTDFTLTISSLQPEDFATYYCQQAYSIWTFGQGTKVEIKR | 28.5 nM | 12.3 nM | 
4 | TY23557 (antibody, V domains shown, Tested as IgG with Fc from mouse IgG2a, expressed in mammalian cells) VH: EVQLVESGGGLVQPGGSLRLSCAASGFTFTGYGIHWVRQAPGKGLEWVSAISGSGGSTYYADSVKGRFTISRDNSKNTLYLQLNSLRAEDTAVYYCARGAYYGGSYYFDYWGQGTLVTVSS VL: DIQLTQSPSSLSASVGDRVTITCRASESITSSYLAWYQQKPGKAPKLLIYDASSLESGVPSRFSGSGSGTDFTLTISSLQPEDFATYYCFQGSHYPPTFGQGTKVEIKR | 10.1 nM | 6.77 nM | binds
5 | TY23561 (antibody, V domains shown, Tested as IgG with Fc from mouse IgG2a, expressed in mammalian cells) VH: EVQLVESGGGLVQPGGSLRLSCAASGFSLSTSGVGVSWIRQAPGKGLEWLALIDWAGDKYYSPSLKSRLTISRDNSKNTLYLQLNSLRAEDTAVYYCARYGYSSYALDYWGQGTLVTVSS VL: DIQLTQSPSSLSASVGDRVTITCRASQSVRGSYLAWYQQKPGKAPKLLIYAASTLQSGVPSRFSGSGSGTDFTLTISSLQPEDFATYYCQQYSSLWTFGQGTKVEIKR | 166 nM | 50 nM | 

Further lines, results first:

Row | EC50 (human CD137L peptide 01) | EC50 (human CD137L peptide 02) | binding result (full length human CD137L) | Binder
6 | 1.03 nM | 0.65 nM |  | TY23559 (antibody, V domains shown, Tested as IgG with Fc from mouse IgG2a, expressed in mammalian cells) VH: EVQLVESGGGLVQPGGSLRLSCAASGYSISSGHYWAWIRQAPGKGLEWIGEIYHSGSTYYSPSLKSRVTISRDNSKNTLYLQLNSLRAEDTAVYYCTRGRYGLDYWGQGTLVTVSS VL: DIQLTQSPSSLSASVGDRVTITCSASSSVSYVQWYQQKPGKAPKLLIYDASNRATGIPSRFSGSGSGTDFTLTISSLQPEDFATYYCQQYSTNPLTFGQGTKVEIKR
7 | 3.13 nM | 1.59 nM |  | TY23554 (antibody, V domains shown, Tested as IgG with Fc from mouse IgG2a, expressed in mammalian cells) VH: EVQLVESGGGLVQPGGSLRLSCAASGYSITSGYYWAWIRQAPGKGLEWIGIINPNRGSTKYAQKFQGRVTISRDNSKNTLYLQLNSLRAEDTAVYYCARDGWALSGGYYYYYGLDVWGQGTLVTVSS VL: DIQLTQSPSSLSASVGDRVTITCRASQDISSDLAWYQQKPGKAPKLLIYDASNLETGVPSRFSGSGSGTDFTLTISSLQPEDFATYYCQQYDAWPSTFGQGTKVEIKR
8 | 2.04 nM | 0.74 nM |  | TY23562 (antibody, V domains shown, Tested as IgG with Fc from mouse IgG2a, expressed in mammalian cells) VH: EVQLVESGGGLVQPGGSLRLSCAASGYSISSGYHWDWIRQAPGKGLEWIGRINPNRGSTKYAQKFQGRVTISRDNSKNTLYLQLNSLRAEDTAVYYCAREFGAYWGQGTLVTVSS VL: DIQLTQSPSSLSASVGDRVTITCRASQSVDFVGKSFLDWYQQKPGKAPKLLIYDASNLETGVPSRFSGSGSGTDFTLTISSLQPEDFATYYCQQRASWPLTFGQGTKVEIKR
